Experimental findings from paper PMC2192206 are described below.

The target in the assay is lymphocyte function associated-1 (LFA-1, CD11a/CD18) (UniProt P20701). The experiment in a line: radioligand binding.
lymphocyte function associated-1 (LFA-1, CD11a/CD18), sequence (P20701 26-1170, chain 1 of 2): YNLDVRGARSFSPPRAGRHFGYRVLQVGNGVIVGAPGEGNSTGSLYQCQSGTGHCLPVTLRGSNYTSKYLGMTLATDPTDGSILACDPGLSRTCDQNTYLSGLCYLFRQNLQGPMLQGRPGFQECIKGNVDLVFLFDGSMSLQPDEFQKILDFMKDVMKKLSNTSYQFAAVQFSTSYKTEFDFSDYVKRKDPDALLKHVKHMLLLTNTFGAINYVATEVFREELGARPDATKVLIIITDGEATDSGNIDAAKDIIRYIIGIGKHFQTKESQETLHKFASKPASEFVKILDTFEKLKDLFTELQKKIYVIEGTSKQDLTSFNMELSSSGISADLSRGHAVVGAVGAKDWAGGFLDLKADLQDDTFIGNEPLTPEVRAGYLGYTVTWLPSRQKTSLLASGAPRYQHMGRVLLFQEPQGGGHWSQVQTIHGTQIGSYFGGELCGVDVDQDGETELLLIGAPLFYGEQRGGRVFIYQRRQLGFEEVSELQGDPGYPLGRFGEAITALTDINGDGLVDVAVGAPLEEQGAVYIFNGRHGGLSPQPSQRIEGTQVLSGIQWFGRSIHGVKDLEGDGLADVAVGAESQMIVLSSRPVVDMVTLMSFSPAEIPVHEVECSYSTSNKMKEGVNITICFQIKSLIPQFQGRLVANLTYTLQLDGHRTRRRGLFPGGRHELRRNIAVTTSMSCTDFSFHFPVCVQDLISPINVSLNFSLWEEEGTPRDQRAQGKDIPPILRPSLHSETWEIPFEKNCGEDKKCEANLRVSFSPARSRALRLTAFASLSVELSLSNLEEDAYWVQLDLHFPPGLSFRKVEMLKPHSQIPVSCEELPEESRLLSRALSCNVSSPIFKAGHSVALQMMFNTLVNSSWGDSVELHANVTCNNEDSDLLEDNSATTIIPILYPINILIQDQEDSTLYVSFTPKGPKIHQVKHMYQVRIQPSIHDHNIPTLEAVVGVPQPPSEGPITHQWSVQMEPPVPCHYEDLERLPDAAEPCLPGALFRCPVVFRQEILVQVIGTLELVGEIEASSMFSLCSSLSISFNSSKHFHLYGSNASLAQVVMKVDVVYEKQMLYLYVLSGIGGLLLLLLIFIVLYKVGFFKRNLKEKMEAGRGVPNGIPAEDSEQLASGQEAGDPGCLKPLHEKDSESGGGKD
lymphocyte function associated-1 (LFA-1, CD11a/CD18), sequence (P05107 23-769, chain 2 of 2, further chain): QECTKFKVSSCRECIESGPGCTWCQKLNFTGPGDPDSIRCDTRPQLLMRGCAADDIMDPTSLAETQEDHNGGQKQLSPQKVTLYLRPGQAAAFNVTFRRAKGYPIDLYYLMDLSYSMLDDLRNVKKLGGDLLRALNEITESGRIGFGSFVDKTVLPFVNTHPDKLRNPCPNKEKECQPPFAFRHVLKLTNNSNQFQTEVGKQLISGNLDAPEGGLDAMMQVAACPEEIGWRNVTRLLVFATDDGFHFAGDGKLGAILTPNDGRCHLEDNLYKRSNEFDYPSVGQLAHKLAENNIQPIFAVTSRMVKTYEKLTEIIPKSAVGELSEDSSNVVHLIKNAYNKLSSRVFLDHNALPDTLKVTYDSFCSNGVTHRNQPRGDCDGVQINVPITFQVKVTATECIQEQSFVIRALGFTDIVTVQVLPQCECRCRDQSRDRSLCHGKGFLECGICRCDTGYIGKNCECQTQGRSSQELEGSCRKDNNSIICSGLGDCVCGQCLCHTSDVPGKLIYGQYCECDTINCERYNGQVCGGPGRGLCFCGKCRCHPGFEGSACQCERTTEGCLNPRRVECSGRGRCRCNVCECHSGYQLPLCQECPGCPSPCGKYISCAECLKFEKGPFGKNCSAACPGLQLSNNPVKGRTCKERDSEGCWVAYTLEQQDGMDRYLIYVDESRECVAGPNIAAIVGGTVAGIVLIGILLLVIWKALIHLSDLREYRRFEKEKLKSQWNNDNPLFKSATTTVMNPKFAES

Consider “ICAM-1-HA dimer (from UniProt P05362 28-480) (complex)”, for which the KD of the high affinity component turned out to be 8 nM.
